Assay results: patent US20090017017A1 (SYMPHOGEN A S, published 2009)

T1: Rhesus D antigen (human, UniProt Q02161 2-417)
T1 construct: whole, on cells; Presented on RhD(+) erythrocytes; also called RhD; RhD antigen
T1 sequence (looked up): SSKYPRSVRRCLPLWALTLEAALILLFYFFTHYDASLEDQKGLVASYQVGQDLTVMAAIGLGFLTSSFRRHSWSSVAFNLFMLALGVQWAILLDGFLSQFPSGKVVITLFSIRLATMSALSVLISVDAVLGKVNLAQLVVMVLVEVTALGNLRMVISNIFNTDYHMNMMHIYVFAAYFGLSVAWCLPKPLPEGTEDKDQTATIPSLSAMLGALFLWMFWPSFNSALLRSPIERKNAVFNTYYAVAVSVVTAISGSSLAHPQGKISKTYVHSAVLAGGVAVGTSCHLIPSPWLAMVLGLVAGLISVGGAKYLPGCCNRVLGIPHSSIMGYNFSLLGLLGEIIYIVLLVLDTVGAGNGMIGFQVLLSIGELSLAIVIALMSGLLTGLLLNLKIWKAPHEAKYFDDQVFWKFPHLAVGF

B1: RhD159.119B09 (Fab, V domains shown)
VH: EVQLVETGGGLVQPGGSLRLSCAASGFSFRSYDMNWVRQAPGKGLEWVSYISGRGSTTYYADSVKGRFTISRDNAKNSLYLQMNSLRAEDTAVYYCARDLYGDYDPKSYYYYAMDVWGHGTTVTVSS
VL: EIVMTQSPGTLSLSPGERATLSCRASHTVSSGYLAWYQQKPGQAPRLLIYGASNRATGVPDRFGGSGSGTDFTLTISRLEPEDSAVYFCQQYGTSPGVTFGQGTRLEIER
notes: Tested as Fab in E. coli periplasmic extract (VH on human gamma 1 CH1, vector Em351)
B2: RhD296.126A03 (Fab, V domains shown)
VH: EVQLVESGGGVVQPGRSLRLSCEASGFTFSNYGMHWFRQAPGKGLEWVAIIWYDGSNKHYADSVKGRFTISRDNSKNTLYLQMNSLRAEDTAVYFCAREIASRGYSRYLYYFDSWGQGTLVTVSS
VL: DIQMTQSPSSLSASVGDRVTITCRASQSISSYLNWYQQKPGKAPKLLIFAASSLQSGVPSRFSGSGSGTDFSLTISSLQPEDFATYYCQQSYSSLALTFGGGTKVEIKR
notes: as for B1
B3: RhD294.119E10 (Fab, V domains shown)
VH: QVQLVESGGGVVQPGRSLRLSCAASGFSFSNYGMHWVRQAPGKGLEWVAVISYDGSEKYYADSVKGRFTISRDNSKKTLYLQMNSLRAEDTAMYYCKNKVGATRRAVVAVDIWGQGTMVTVSS
VL: EIVLTQSPGTLSLSPRERATLSCRANQYVNSNHLAWYQQKPGQAPRLLLYGASRRATGIPDRFSGSGTGTDFTLIISRLEPEDFAVYFCQLYDHSRPMYTFGQGTKLEIKR
notes: as for B1
B4: RhD160.119C07 (Fab, V domains shown)
VH: EVQLVESGGGVVQPGRSLRLSCAASGFTFSNYGMHWVRQAPGKGLEWVAVIWYDGSNRFYADSVKGRFTISRDNSKNTLYLQMNNLRAEDTALYSCAREITTTVVVRRHYLMDIWGQGTTVTVSS
VL: DIQLTQSPSSLSASVGDRVSITCRASQGISNSLAWYQQKPGKVPKLLIYAASTLQSGVPSRFSGGGSGTDFTLTISSLQPEDVATYYCQKYNSAPFAFGPGTKVDIKR
notes: as for B1
B5: RhD295.119B11 (Fab, V domains shown)
VH: QVQLVESGGGLVQPGGSLRLSCVGSGFTFRSFDMNWVRQAPGKGLEWISYINSRGNTRYYVDSVKGRFTISRDNAKNSLYLQMNSLRAEDTAVYYCARDLYGDYDPKSYYYYGMDVWGQGTMVTVSS
VL: EIVLTQSPGTLSLSPGERATLSCRASQSFSSGYLAWYQQKPGQAPRLLIYGASNRATGIPDRFSGSGSGTDFTLTISRLEPEDFAVYYCQHYGSSPPITFGQGTRLEIKR
notes: as for B1
B6: RhD161.119E09 (Fab, V domains shown)
VH: EVQLVESGGGVVQSGRSLRLSCAASGFTFSNNGMHWVRQAPGKGLEWVAFIWYDGSNKYYADSVKGRFTISRDNSKNTLYLQMDGLRAEDSAVYYCAREEIAARLYSRYHYAMDVWGQGTMVTVSS
VL: DIQMTQSPSFLSASVGDRVTITCRASQGIRRYLAWFQQKPGKAPKLLIFSASTLQSGVPSRFSGSGSGTEFTLTISSLQPEDFATYYCQQLSSYPPYTFGQGTKLEIKR
notes: as for B1
B7: RhD317.144A02 (Fab, V domains shown)
VH: QVQLQESGPGLVKPSGTLSLTCAVSGGSIRGSNWWSWVRQPPGKGLEWIGEIHHGGSTNYNPSLKSRVTISVDKSKNRFSLKLSSVTAADTAVYYCARGTSYYDSSGYSFRGLVAFDIWGQGTMVTVSS
VL: EIVLTQSPGTLSLSPGERATLSCRASQSVSSAFLAWYQQKPGQAPRLLIYGASSRATGIPDRFSGSGSGTDFTLTISRLEPEDFAVYYCQQYGSFSITFGQGTRLEIKR
notes: as for B1
B8: RhD302.160B10 (Fab, V domains shown)
VH: QVQLVESGGGVVQPGRSLRLSCAASGFTFSSYGMHWVRQAPGKGLEWVAFISYDGSNKYYADSVKGRFTISRDNSKNTLSLQMNSLRAEDTAVYYCAKEHGYYRSSWYRNYYYYGMDVWGQGTTVTVSS
VL: DIQLTQSPSSLSASVGDRVTITCRASQSISSYLNWYKQRPGKAPKLLIYAASTLQSGVPSRFSGSGSGTDFALTISSLQAEDFATYYCQQTYSTLWTFGQGTKVEITR
notes: as for B1
B9: RhD303.160B11 (Fab, V domains shown)
VH: QVQLVESGGGVVQPERSLRLSCAASGFTFSSYGMHWVRQAPGKGLEWVAVISYDGSNKYYADSVKGRFTISRDNSKNTLYLQMNSLRAEDTAVYYCAKDEVGYSSSWYRRYYYYAMDVWGQGTTVTVSS
VL: EIVLTQSPGTLSLSPGETATLSCRASQSVSDRDLAWYQQKSGQSPRLLMYGGSTRAPGIPVRFSGSGSGTEFTLTISSLQSEDFAIYYCQHYHDWPPTFGQGTRLEIKR
notes: as for B1
B10: RhD306.223E11 (Fab, V domains shown)
VH: QVQLVESGGGVVQPGRSLRLSCAASGFTFSSYGMHWVRQAPGKGLEWVAVIWYDGSNKYYADSVKGRFTISRDNSKNTLYLQMNTLRDDDTAVYYCAREGTLYSSSWYRRYYYYGMDAWGQGTTVTVSS
VL: EIVLTQSPGTLSLSPGERVTLSCRPSRYIASDYLAWYQLRPGQAPKLLIYGASSRATGIPDRFSGVGSPTDFTLTISRLEPEDFAMYYCHYSGGSPPYPFGQGTRLDIKR
notes: as for B1
B11: RhD307.230E11 (Fab, V domains shown)
VH: QVQLVETGGGVVQPGRSLRLSCAASGFTFSSYGMHWVRQAPGKGLEWVAGIWYDGSNKYYGDSVKGRFTISRDNSRNTLYLHMNSLRADDTAVYYCAREHGGSRSGWYTLRLAYYFDYWGQGTLVTVSS
VL: DIQLTQSPSSLSASVGDRVTITCRASQYINVYLNWYQHKAGRAPKLLIYAASNLQSGVPPRFIGSGSGTDFTLTISSLQSEDFATYYCLQSFTVPRTFGPGTKVDVKR
notes: as for B1
B12: RhD305.181E06 (Fab, V domains shown)
VH: QVQLVESGGGVVQPGRSLRLSCAASGFTFSSYGMHWVRQAPGKGLEWVAGIWYDGSNKYYADSVKGRFTISRDNSRNTMYLQMNSLRAEDTAVYYCAREQGGYSSSWYRRYYYYNMDLWGQGTTVTVSS
VL: EIVLTQSPGSLSLSPGERATLSCRASQSVSSSYLAWYQQKPGQAPRLLIYGPSSRATGIPDRFSGSGSGTDFTLTISRLEPEDFAVYYCQHFGNSRGTFGQGTKVEIRR
notes: as for B1
B13: RhD299.127A12 (Fab, V domains shown)
VH: QVQLVESGGGVVQPGRSLRLSCAASGFTFSNFGMHWVRQAPGKGLEWVAVIWYDGSNKDYADSVKGRFTISRDNSKRTLYLQMNSLRAEDTAVYYCARELARGRLRDLDYWGQGTLVTVSS
VL: QAVVTQEPSLTVSPGGTVTLTCASSTGAVTTGYYPNWFQQKPGQAPRALIYSTSKKHSWTPARFSGSLLGGKAALTLSGVQPEDEAEYYCLLFYGGAQLGVFGGGTKLTVLG
notes: as for B1
B14: RhD301.160A04 (Fab, V domains shown)
VH: QVQLVESGGGVVQPGRSLRLSCAASGFTFSSYGMHWVRQAPGKGLEWVAVIWFDGGNKYYADSAKGRFTISRDNSKNTLYLQMNSLRAEDTAVYYCARDASVLSGLVTRRLVYYGMDVWGQGTTVTVSS
VL: DVVMTQSPLSLPVTPGEPASISCRSSQSLLHRNGYNYLNWYLQKPGQSPQLLIYLGSNRASGVPDRFSGSGSGTDFTLKISGVEAEDVAFYYCMQGLRTPYTFGQGTKLEIKR
notes: as for B1
B15: RhD300.134H09 (Fab, V domains shown)
VH: QVQLVESGGGVVQPGRSLRLSCAASGFTFSSYGMHWVRQAPGKGLEWVAVIWYDGSNKYYADSVKGRFTISRDNSKNTLYLQMNSLRAEDTAVYYCAREFYTRSGLWSQGYSYYMDVWGKGTTVTVSS
VL: QTVVTQEPSFSVSPGGTVTLTCGLSSGSVSARYYPSWYQQTPGQPPRTLIHSTNTRSSGVPDRFSGSILGNKAALTITGAQADDESDYYCVLYMGSGPWVFGGGTKLTVLG
notes: as for B1
B16: RhD304.164B06 (Fab, V domains shown)
VH: QVQLVQSGGGVVQPGRSLRLSCAASGFTFSSYGMHWVRQAPGKGLEWVAVIWYDGSNKYYADSVKGRFTISRDNSKNTLYLQMNSLRAEDTAVYYCARETVVVAAKIRNHYYYAMDVWGQGTTVTVSS
VL: DIQMTQSPSSLSASLGGTVTLTCRSSQFISRYLNWYQQHPGKVPRLLISGASRLQRGVPSRFTGGGSGTDFTLTIKNVQPDDIATYFCQHSYRSGRAFGQGTTVEVKR
notes: as for B1

Target: T1, Rhesus D antigen
Assay: agglutination assay, Fab periplasmic extract on RhD(+)/RhD(-) RBC mix
Experimental: (§1) After each round of panning single colonies were picked for analysis of their binding properties to red blood cells in agglutination assays. Briefly, single colonies were inoculated into 2×YT/100 μg/mL carbenicillin/1% glucose and shaken overnight at 37° C. The next day, DeepWell plates were inoculated using 900 μl 2×YT/100 μg/mL carbenicillin/0.1% glucose and 10 μl overnight culture. The plates were shaken for two hours at 37° C., before Fab induction was performed with addition of 300 μl 2×YT/100 μg/mL carbenicillin/0.25 mM IPTG per well. The plate was shaken overnight at 30° C. The following day, the bacteria were pelleted by centrifugation (3200×g, 4° C., 10 minutes), and re-suspended in 100 μl of 0.8 M NaCl, 0.2×PBS, 8 mM EDTA, and incubated for 15 minutes on ice in order to perform a periplasmic extraction of the Fab fragments. The plate was transferred to −20° C. and finally the suspension was thawed and centrifugation was performed for 10 minutes at 4° C. and 3200×g. The periplasmic extract was used in ELISA assays for analysis of Fab content and in agglutination assays to evaluate the binding potential of the individual Fab fragments.
(§2) The agglutination assay was performed as follows: RhD(−) and RhD(+) RBC were mixed in a 1:1 ratio, and washed 3 times in PBS. After the final wash, the cell mix was re-suspended in 1% BSA in PBS at a density of 10% cells, 50 μl was added to each well of a 96-plate. Periplasmic extracts were added to the wells. As a positive control Rhesogamma P immunoglobulin (Aventis) was used according to the manufacturer's instructions. The plates were incubated for one hour at room temperature with gentle shaking. The cells were washed three times with PBS, before the secondary antibody was added (goat anti-human Fab/FITC conjugate, Sigma F5512) in a 1:100 dilution. The plates were left for agglutination for one hour at room temperature without shaking. Fab fragments positive in the agglutination assay was determined by visual inspection, and recorded by taking a picture. Quantization of the binding activity of the Fab fragments was performed by FACS analysis of the agglutination samples.

Binding result, binds:
B1, B2, B3, B4, B5, B6

Target: T1, Rhesus D antigen
Assay: Fab screening on RBC (agglutination, FACS)
Experimental: as §1, §2

Binding result, binds:
B7, B8, B9, B10, B11, B12, B13, B14, B15, B16
